Tests used:
[1] = α-Helical analysis (CONTIN analysis from the circular dichroism spectra); type: physicochemical
Description: ^1 Determined by CONTIN analysis from the circular dichroism spectra.

[2] = Near- and far-UV circular dichroism; type: physicochemical; details: mean residue ellipticity, variation of 3%
Protocol: Protein stock solutions were prepared by dissolving a known mass of protein in either 20 mM Tris or 50 mM sodium phosphate and 50 mM sodium chloride, pH 7.8, followed by zinc oxide addition to a final concentration of 0.5 mol Zn per mol of protein monomer. The pH of the solution was readjusted to pH 7.8 as needed. The protein stock concentrations were determined by UV absorbance using an AVIV model 14DS double-beam spectrophotometer. […] All circular dichroism measurements were obtained using an AVIV Model 62DS spectrometer (Lakewood, N.J.) with results reported as mean residue ellipticity (MRE) having units of deg.cm^2.dmol^-1.
All samples were measured by far-UV CD at 23° C. using a 0.01 cm CD cell. The signal at 224 nm was recorded as a function of either m-cresol or KSCN concentration.
To further explore secondary structure, the far-UV CD spectra were collected from 250 nm to 200 nm using a 0.01 cm cuvette. To gain insight into the environment of the aromatic and disulfide amino acids the near-UV CD spectra were collected from 350 to 250 nm using a 0.1 cm cell.

[3] = injection of an acidic solution; cited from earlier work
[4] = Equilibrium ultracentrifugation (aggregation state); type: physicochemical; details: 0.5 mol of Zn per mol of protein; 20 mM Tris pH 7.8; protein 1.5 to 5 mg/ml
Protocol: Equilibrium ultracentrifugation data was collected at 22° C. at equally spaced radial intervals using a Beckman Model XLA analytical ultracentrifuge Fullterton, Calif. Standard 30 mm and 12 mm centerpieces along with custom-made 3 mm centerpieces all made from charcoal-filled epon were used. Raw data from the chart recorder was converted to concentration versus radius using the internal calibration factors of the scanner. The weight average molecular weight was calculated according to the equation:
MW=RT/(1-Vp)ω^2.1r.1/C.dC/dr
where R is the gas constant, T is the temperature, ω is the rotor speed, r is the radius, C is the concentration, .rho. is the solvent density, and assuming ideal solutions. […] Least squares smoothing methods were used to calculate C and dC/dr.

[5] = from NMR / x-ray crystallography literature; cited from earlier work

For “Zn + asp^B1 gln^B13 Insulin: asp^B1 gln^B13 insulin sample with Zn”, the “% Helix Measured” value [1] was 65%, the “Circular Dichroism, Wavelength 224 nm” value [2] was -14555 deg.cm^2.dmol^-1 and the “Circular Dichroism, Wavelength 251 nm” value [2] was -426 deg.cm^2.dmol^-1. The “Circular Dichroism, Wavelength 276 nm” value [2] was -291 deg.cm^2.dmol^-1.

In the case of “gln^B13 analog: literature insulin analog with gln at B13 that forms stable hexamers in the absence of Zn”, the “reduction of insulin absorption rate after injection” value [3] is given as 25%.

With “Zn-Asp^B1 insulin: Asp^B1 insulin containing 0.5 mol of Zn per mol of protein” the “aggregation state (weight average molecular weight)” value [4] was “hexamer”.

With “Zn + m-cresol + Human Insulin: human insulin sample with Zn and m-cresol [reference compound]” the “Circular Dichroism, Wavelength 224 nm” value [2] was -13488 deg.cm^2.dmol^-1, the “Circular Dichroism, Wavelength 251 nm” value [2] was -425 deg.cm^2.dmol^-1 and the “Circular Dichroism, Wavelength 276 nm” value [2] was -335 deg.cm^2.dmol^-1.

With “Zn + m-cresol + asp^B1 gln^B13 Insulin: asp^B1 gln^B13 insulin sample with Zn and m-cresol” the “% Helix Measured” value [1] was 64%, the “Circular Dichroism, Wavelength 224 nm” value [2] was -14092 deg.cm^2.dmol^-1 and the “Circular Dichroism, Wavelength 251 nm” value [2] was -431 deg.cm^2.dmol^-1. The “Circular Dichroism, Wavelength 276 nm” value [2] was -384 deg.cm^2.dmol^-1.

In the case of “Zn + Human Insulin: human insulin sample with Zn [reference compound]”, the “Circular Dichroism, Wavelength 224 nm” value [2] is reported as -10892 deg.cm^2.dmol^-1, the “Circular Dichroism, Wavelength 251 nm” value [2] is reported as -121 deg.cm^2.dmol^-1 and the “Circular Dichroism, Wavelength 276 nm” value [2] is reported as -305 deg.cm^2.dmol^-1. For the same substance, the “% Helix Theoretical” value [5] was 47%.
